Laboratory results as given in paper PMC5286520.

How the values were obtained:
Details in all cases: modification not given
[1] = target: V2R (Homo sapiens), P30518; test: radioligand
[2] = target: T1, OTR (Homo sapiens), P30559; test: radioligand displacement
T1 chain: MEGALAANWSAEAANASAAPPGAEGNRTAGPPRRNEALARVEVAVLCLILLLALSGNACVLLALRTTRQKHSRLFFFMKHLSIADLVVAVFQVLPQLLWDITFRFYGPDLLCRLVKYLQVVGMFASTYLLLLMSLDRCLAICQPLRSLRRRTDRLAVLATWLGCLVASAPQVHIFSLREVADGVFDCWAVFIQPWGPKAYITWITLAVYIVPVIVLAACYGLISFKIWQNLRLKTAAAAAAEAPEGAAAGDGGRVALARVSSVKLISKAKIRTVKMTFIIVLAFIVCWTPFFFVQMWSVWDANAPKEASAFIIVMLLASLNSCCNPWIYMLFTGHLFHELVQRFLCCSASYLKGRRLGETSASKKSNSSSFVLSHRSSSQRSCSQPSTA

[3] = target: V1aR (Homo sapiens), P37288; test: radioligand displacement
[4] = target: T2, V1bR (Homo sapiens), P47901; test: radioligand displacement
T2 chain: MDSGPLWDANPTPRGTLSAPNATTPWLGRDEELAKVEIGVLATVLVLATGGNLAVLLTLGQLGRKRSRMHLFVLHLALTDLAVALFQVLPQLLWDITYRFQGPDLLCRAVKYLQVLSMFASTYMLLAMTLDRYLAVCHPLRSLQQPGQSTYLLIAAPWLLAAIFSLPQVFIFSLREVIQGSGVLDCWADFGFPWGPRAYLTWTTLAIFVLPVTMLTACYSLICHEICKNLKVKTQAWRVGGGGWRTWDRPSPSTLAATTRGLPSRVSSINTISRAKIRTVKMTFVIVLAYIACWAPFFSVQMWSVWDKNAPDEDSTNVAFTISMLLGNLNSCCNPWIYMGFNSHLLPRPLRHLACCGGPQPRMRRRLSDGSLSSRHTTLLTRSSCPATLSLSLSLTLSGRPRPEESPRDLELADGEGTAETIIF

Chain of V1aR (Homo sapiens), P37288 (P37288 whole entry): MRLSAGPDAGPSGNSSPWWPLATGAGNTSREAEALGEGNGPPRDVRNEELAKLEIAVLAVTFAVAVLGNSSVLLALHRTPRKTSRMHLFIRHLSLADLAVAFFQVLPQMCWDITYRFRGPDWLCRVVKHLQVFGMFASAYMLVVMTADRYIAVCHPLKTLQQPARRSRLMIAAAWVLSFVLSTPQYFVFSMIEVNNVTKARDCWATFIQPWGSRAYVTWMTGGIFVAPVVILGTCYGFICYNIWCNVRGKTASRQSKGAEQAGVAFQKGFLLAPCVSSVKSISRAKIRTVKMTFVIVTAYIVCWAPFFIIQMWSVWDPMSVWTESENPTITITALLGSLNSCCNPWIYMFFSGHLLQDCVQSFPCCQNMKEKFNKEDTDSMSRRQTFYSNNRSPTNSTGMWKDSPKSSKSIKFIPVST

B1: inotocin (peptide)
chain: CLITNCPRG
Q: How did the Ki [1] turn out when B1 was run?
A: > 100000 nM

Q: And the Ki [2]?
A: 62 nM

Q: What about the Ki [3] of the same binder?
A: 11 nM

Q: And the Ki [4]?
A: 12 nM
